Columns and labels:
[1] = system: Arabidopsis thaliana T1 plants; test: Topramezone tolerance of transgenic Arabidopsis thaliana T1 plants (spray, bleached leaf area grade, damage score); format: in vivo; conditions: for Classification and statistics of the grade of pesticide damage: Grade 0 / Classification and statistics of the grade of pesticide damage: Grade 1 / Classification and statistics of the grade of pesticide damage: Grade 2 / Classification and statistics of the grade of pesticide damage: Grade 3: number of plants; for Grade 0 (classification and statistics of the grade of pesticide damage; number of plants) / Grade 1 (classification and statistics of the grade of pesticide damage; number of plants) / Grade 2 (classification and statistics of the grade of pesticide damage; number of plants) / Grade 3 (classification and statistics of the grade of pesticide damage; number of plants): 16 plants
Excerpt: T1 transformants were initially selected from the untransformed seeds using a glufosinate selection scheme. The Arabidopsis thaliana T1 plants (AsHPPD-02) into which the AsHPPD-02 nucleotide sequence was introduced, the Arabidopsis thaliana T1 plants (AsHPPDm-F372A-02) into which the AsHPPDm-F372A-02 nucleotide sequence was introduced, the Arabidopsis thaliana T1 plants (AsHPPDm-F383W-02) into which the AsHPPDm-F383W-02 nucleotide sequence was introduced, the Arabidopsis thaliana T1 plants (AsHPPDm-F372A-F383W-02) into which the AsHPPDm-F372A-F383W-02 nucleotide sequence was introduced, the Arabidopsis thaliana T1 plants (DBN11726N) into which the control recombinant expression vector DBN11726N was introduced, and the wild-type Arabidopsis thaliana plants (CK) (18 days after sowing) were sprayed respectively with topramezone at three concentrations (100 g ai/ha (four-fold field concentration, 4×), 200 g ai/ha (eight-fold field concentration, 8×), and 0 g ai/ha (water, 0×)), isoxaflutole at three concentrations (140 g ai/ha (two-fold field concentration, 2×), 280 g ai/ha (four-fold field concentration, 4×), and 0 g ai/ha (water, 0×)), and mesotrione at three concentrations (210 g ai/ha (two-fold field concentration, […]), 420 g ai/ha (four-fold field concentration, 4×), and 0 g ai/ha (water, 0×)), to determine the tolerance of Arabidopsis thaliana to the herbicides. The degree of damage caused by the herbicide was measured for each plant according to the proportion of bleached leaf area (the proportion of bleached leaf area=bleached leaf area/total leaf area×100%) 7 days after spraying (7 DAT): the case where there is basically no bleached phenotype is defined as grade 0, the case where the proportion of bleached leaf area is less than 50% is defined as grade 1, the case where the proportion of bleached leaf area is more than 50% is defined as grade 2, and the case where the proportion of bleached leaf area is 100% grade is defined as grade 3.
According to the method as described above in point 6 of Example 1, the aforementioned Arabidopsis thaliana T1 plants and wild-type Arabidopsis thaliana plants (CK) (18 days after sowing) were sprayed respectively with topramezone at three concentrations (25 g ai/ha (one-fold field concentration, 1×). 100 g ai/ha (four-fold field concentration, 4×), and 0 g ai/ha (water, 0×)), isoxaflutole at three concentrations (35 g ai/ha (half-fold field concentration, 0.5×). 70 g ai/ha (one-fold field concentration, 1×), and 0 g ai/ha (water, 0×)), and mesotrione at three concentrations (52.5 g ai/ha (half-fold field concentration, 0.5×), 105 g ai/ha (one-fold field concentration, 1×), and 0 g ai/ha (water, 0×)) to detect the tolerance of Arabidopsis thaliana to the herbicides.
According to the method as described above in point 6 of Example 1, the aforementioned Arabidopsis thaliana T1 plants and wild-type Arabidopsis thaliana plants (CK) (18 days after sowing) were sprayed with topramezone at three different concentrations (i.e., 100 g ai/ha (four-fold field concentration, 4×), 200 g ai/ha (eight-fold field concentration, 8×) and 0 g ai/ha (water, 0×)), isoxaflutole at three different concentrations (i.e., 140 g ai/ha (two-fold field concentration, 2×), 280 g ai/ha (four-fold field concentration, 4×) and 0 g ai/ha (water, 0×)), and mesotrione at three different concentrations (i.e., 210 g ai/ha (two-fold field concentration, 2×), 420 g ai/ha (four-fold field concentration, 4×) and 0 g ai/ha (water, 0×)) respectively to detect the herbicide tolerance of Arabidopsis thaliana. […]

[2] = system: Arabidopsis thaliana T1 plants; test: Isoxaflutole tolerance of transgenic Arabidopsis thaliana T1 plants (spray, bleached leaf area grade, damage score); format: in vivo;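 on Scores: Weighted damage index from 0 to 100 where higher means more damage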
Procedure, shortened: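 Damage was assessed by bleaching grade (0 none; 1 <50%; 2 >50%; 3 100% of leaf area) one week after spraying. Sprays on 18-day-old T1 and wild-type plants used field-rate multiples: topramezone 25–200, isoxaflutole 35–280, mesotrione 52.5–420 g ai/ha.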

[3] = topramezone 100 g ai/ha (4×), 7 DAT, Table 1
[4] = topramezone 200 g ai/ha (8×), 7 DAT, Table 1
[5] = topramezone 100 g ai/ha (4x field concentration), Arabidopsis thaliana T1 plants
[6] = topramezone 200 g ai/ha (8x field concentration), Arabidopsis thaliana T1 plants
[7] = isoxaflutole 140 g ai/ha (2x field concentration), Arabidopsis thaliana T1 plants
[8] = isoxaflutole 140 g ai/ha (2x field concentration), Arabidopsis thaliana T1 plants, 16 plants

B1: AsHPPDm-F383W-02: nucleotide sequence encoding Avena sativa HPPD with F383W; vector DBN11729 (nucleic acid)
DNA: ATGCCACCTACTCCAGCTACAGCTACTGGTGCTGCTGCTGCTGCCGTTACTCCTGAGCACGCTGCCAGGTCATTCCCCAGGGTGGTTCGCGTGAACCCCAGATCTGATAGGTTCCCAGTTCTGAGCTTCCACCATGTTGAGCTGTGGTGCGCTGATGCTGCTTCTGCTGCTGGCAGGTTCTCTTTCGCTCTTGGTGCTCCACTCGCTGCTAGATCTGATCTGTCTACAGGAAATAGCGCTCATGCCTCACTCCTGCTTCGCTCAGGTGCTTTGGCCTTCCTCTTCACCGCTCCATATGCTCCCCCACCTCAGGAGGCTGCTACTGCTGCTGCTACAGCCTCCATTCCAAGCTTCTCAGCTGATGCCGCTAGAACCTTCGCTGCTGCTCATGGACTTGCCGTGAGGTCTGTTGGTGTTCGCGTGGCTGATGCTGCTGAGGCTTTCAGAGTTTCCGTTGCCGGCGGAGCTAGGCCAGCTTTCGCTCCTGCTGATTTGGGACATGGTTTCGGCCTGGCTGAGGTTGAGCTTTACGGTGACGTGGTTCTCCGCTTCGTGTCTTACCCAGATGAGACTGACCTGCCTTTCCTTCCCGGCTTCGAGAGAGTTTCCTCTCCTGGTGCCGTGGATTACGGCCTGACAAGGTTCGACCACGTGGTTGGAAACGTTCCCGAGATGGCTCCAGTGATCGATTACATGAAGGGCTTCCTTGGATTCCATGAGTTCGCCGAGTTCACTGCTGAGGACGTGGGAACCACTGAGTCCGGTTTGAACTCTGTGGTTCTCGCCAACAATTCTGAGGCTGTTTTGCTCCCTCTGAATGAGCCTGTGCATGGAACCAAGAGGAGAAGCCAGATTCAAACTTACCTGGAGTACCACGGTGGCCCTGGAGTTCAGCATATCGCCCTTGCTTCTAATGATGTGTTGCGCACACTCAGAGAGATGCGCGCCAGAACCCCCATGGGAGGTTTCGAGTTCATGGCCCCACCACAGGCTAAGTACTACGAGGGCGTTAGAAGGATTGCTGGAGACGTGTTGAGCGAGGAGCAGATCAAGGAGTGCCAAGAGCTGGGTGTTCTTGTGGATAGGGATGACCAGGGCGTTCTGCTTCAAATTTTCACTAAGCCAGTGGGCGACCGCCCTACATTCTGGCTTGAGATGATTCAAAGAATCGGCTGCATGGAGAAGGATGAGGTTGGACAGGAGTACCAAAAGGGCGGATGCGGTGGCTTCGGAAAGGGTAACTTCAGCGAGTTGTTCAAGTCAATCGAGGACTACGAGAAGAGCCTCGAGGTGAAGCAGTCAGTGGTTGCCCAAAAGTCCTGA
modifications: AsHPPDm-F383W-02 Nucleotide Sequence
notes: vector DBN11729
Classification and statistics of the grade of pesticide damage: Grade 0 [1, 3]: 16 | Classification and statistics of the grade of pesticide damage: Grade 1 [1, 3]: 0 | Classification and statistics of the grade of pesticide damage: Grade 2 [1, 3]: 0 | Classification and statistics of the grade of pesticide damage: Grade 3 [1, 3]: 0 | Classification and statistics of the grade of pesticide damage: Grade 0 [1, 4]: 16 | Classification and statistics of the grade of pesticide damage: Grade 1 [1, 4]: 0 | Classification and statistics of the grade of pesticide damage: Grade 2 [1, 4]: 0 | Classification and statistics of the grade of pesticide damage: Grade 3 [1, 4]: 0 | Scores ([1]; pesticide damage score 0-100, topramezone 100 g ai/ha (4×), 7 DAT, Table 1): 0 | Scores ([1]; pesticide damage score 0-100, topramezone 200 g ai/ha (8×), 7 DAT, Table 1): 0 | Resistance evaluation [1, 5]: Highly resistant | Scores [1, 5]: 0 | Grade 0 (classification and statistics of the grade of pesticide damage; number of plants) [1, 5]: 16 | Grade 1 (classification and statistics of the grade of pesticide damage; number of plants) [1, 5]: 0 | Grade 2 (classification and statistics of the grade of pesticide damage; number of plants) [1, 5]: 0 | Grade 3 (classification and statistics of the grade of pesticide damage; number of plants) [1, 5]: 0 | Resistance evaluation [1, 3]: highly resistant (highly resistant plants (scores 0-15)) | Resistance evaluation [1, 6]: Highly resistant | Scores [1, 6]: 0 | Grade 0 (classification and statistics of the grade of pesticide damage; number of plants) [1, 6]: 16 | Grade 1 (classification and statistics of the grade of pesticide damage; number of plants) [1, 6]: 0 | Grade 2 (classification and statistics of the grade of pesticide damage; number of plants) [1, 6]: 0 | Grade 3 (classification and statistics of the grade of pesticide damage; number of plants) [1, 6]: 0 | Resistance evaluation [1, 4]: highly resistant (highly resistant plants (scores 0-15)) | tolerance to topramezone (resistance class) ([1]; topramezone at four-fold or eight-fold field concentration): highly-resistant | tolerance to isoxaflutole (in words) ([2]; in vivo): different degrees of tolerance | Resistance evaluation [2, 7]: Moderately | Scores [2, 7]: 21 | Grade 0 (classification and statistics of the grade of pesticide damage; number of plants) [2, 8]: 6 | Grade 1 (classification and statistics of the grade of pesticide damage; number of plants) [2, 8]: 10 | Grade 2 (classification and statistics of the grade of pesticide damage; number of plants) [2, 8]: 0 | Grade 3 (classification and statistics of the grade of pesticide damage; number of plants) [2, 8]: 0 | Resistance evaluation ([2]; isoxaflutole 140 g ai/ha (2×), 7 DAT, Table 2): moderately

From patent US20250043302A1, “MUTATED HYDROXYPHENYLPYRUVATE DIOXYGENASE POLYPEPTIDE, AND CODING GENE AND USE THEREOF” (BEIJING DABEINONG BIOTECHNOLOGY CO., LTD., priority 2021, published 2025)
